Laboratory results reported in paper PMC5435919 (Nucleic Acids Research, 2017).

What was measured:
atomic force microscopy = biological target: the molecule itself; experiment: atomic force microscopy
SEC-MALS = biological target: the molecule itself; experiment: SEC-MALS
DmGen (1-518)-His = biological target: T1, DmGen (1-518)-His (Drosophila melanogaster, UniProt Q9VRJ0 1-518); experiment: EMSA
T1 sequence: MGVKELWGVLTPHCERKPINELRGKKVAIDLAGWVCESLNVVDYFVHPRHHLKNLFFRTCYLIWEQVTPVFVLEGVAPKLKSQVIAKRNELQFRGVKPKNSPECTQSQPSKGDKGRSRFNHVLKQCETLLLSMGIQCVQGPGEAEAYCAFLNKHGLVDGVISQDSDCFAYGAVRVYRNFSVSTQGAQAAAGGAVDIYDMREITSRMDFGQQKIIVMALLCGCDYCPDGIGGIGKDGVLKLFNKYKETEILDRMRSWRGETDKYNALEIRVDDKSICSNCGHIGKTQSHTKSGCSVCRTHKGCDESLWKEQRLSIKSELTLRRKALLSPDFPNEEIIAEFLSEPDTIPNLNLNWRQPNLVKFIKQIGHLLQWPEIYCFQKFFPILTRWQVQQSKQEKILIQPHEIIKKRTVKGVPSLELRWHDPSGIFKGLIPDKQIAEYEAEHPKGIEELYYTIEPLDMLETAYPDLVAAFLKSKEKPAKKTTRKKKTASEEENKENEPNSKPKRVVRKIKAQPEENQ

Binder | Kd (atomic force microscopy) | stoichiometry N (SEC-MALS) | binding result (DmGen (1-518)-His)
truncated DmGen (1-518 aa) with C-terminal hexahistidine tag (enzyme, Drosophila, UniProt Q9VRJ0 1-518, looked up) MGVKELWGVLTPHCERKPINELRGKKVAIDLAGWVCESLNVVDYFVHPRHHLKNLFFRTCYLIWEQVTPVFVLEGVAPKLKSQVIAKRNELQFRGVKPKNSPECTQSQPSKGDKGRSRFNHVLKQCETLLLSMGIQCVQGPGEAEAYCAFLNKHGLVDGVISQDSDCFAYGAVRVYRNFSVSTQGAQAAAGGAVDIYDMREITSRMDFGQQKIIVMALLCGCDYCPDGIGGIGKDGVLKLFNKYKETEILDRMRSWRGETDKYNALEIRVDDKSICSNCGHIGKTQSHTKSGCSVCRTHKGCDESLWKEQRLSIKSELTLRRKALLSPDFPNEEIIAEFLSEPDTIPNLNLNWRQPNLVKFIKQIGHLLQWPEIYCFQKFFPILTRWQVQQSKQEKILIQPHEIIKKRTVKGVPSLELRWHDPSGIFKGLIPDKQIAEYEAEHPKGIEELYYTIEPLDMLETAYPDLVAAFLKSKEKPAKKTTRKKKTASEEENKENEPNSKPKRVVRKIKAQPEENQ | ~100 nM | 2 | –
linear dsDNA (oligos 888/888rc) (dsDNA) DNA 1: GACGCTGCCGAATTCTGGCGTTAGGAGATACCGATAAGCTTCGGCTTAA DNA 2: TTAAGCCGAAGCTTATCGGTATCTCCTAACGCCAGAATTCGGCAGCGTC | – | – | no binding
